Measurements: the supplement of paper PMC9233669
Variants at the floor of the assay were thinned out.

How the values were obtained:
[1] = tested on: biotinyl-Phe-oxazolone; experiment: self-aminoacylation, catalytic enhancement (BFO) (fold over background); higher = more active; k-Seq, kA / k0A0; sequences stand for … in GGGAAUGGAUCCACAUCUACGAAUUC…UUCACUGCAGACUUGACGAAGCUG
Procedure, shortened: (§1)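 Catalytic enhancement equals the median kA over the uncatalyzed rate, the latter read from the low-activity peak of a bimodal Gaussian fit. Values of kA came from fitting each sequence's fraction reacted to a pseudo-first-order model, with 1000 bootstraps. Reacted RNA was captured with streptavidin and quantified by triplicate qPCR and Illumina sequencing after 90 minutes at room temperature with 2–1250 μM biotinyl-aminoacyl-oxazolone and 0.43 μM mutagenized RNA pools bearing a 21-nt variable region.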

[2] = tested on: biotinyl-Ile-oxazolone; experiment: self-aminoacylation, catalytic enhancement (BIO) (fold over background); higher = more active; k-Seq, kA / k0A0; sequences stand for … in GGGAAUGGAUCCACAUCUACGAAUUC…UUCACUGCAGACUUGACGAAGCUG
Procedure, shortened: as §1

[3] = tested on: biotinyl-Met-oxazolone; experiment: self-aminoacylation, catalytic enhancement (BMO) (fold over background); higher = more active; k-Seq, kA / k0A0; sequences stand for … in GGGAAUGGAUCCACAUCUACGAAUUC…UUCACUGCAGACUUGACGAAGCUG
Procedure, shortened: as §1

[4] = tested on: biotinyl-Val-oxazolone; experiment: self-aminoacylation, catalytic enhancement (BVO) (fold over background); higher = more active; k-Seq, kA / k0A0; sequences stand for … in GGGAAUGGAUCCACAUCUACGAAUUC…UUCACUGCAGACUUGACGAAGCUG
Procedure, shortened: as §1

[5] = tested on: biotinyl-Leu-oxazolone; experiment: self-aminoacylation, catalytic enhancement (BLO) (fold over background); higher = more active; k-Seq, kA / k0A0; sequences stand for … in GGGAAUGGAUCCACAUCUACGAAUUC…UUCACUGCAGACUUGACGAAGCUG
Procedure, shortened: as §1

[6] = tested on: biotinyl-Trp-oxazolone; experiment: self-aminoacylation, catalytic enhancement (BWO) (fold over background); higher = more active; k-Seq, kA / k0A0; sequences stand for … in GGGAAUGGAUCCACAUCUACGAAUUC…UUCACUGCAGACUUGACGAAGCUG
Procedure, shortened: as §1

Sequence	self-aminoacylation [1]	self-aminoacylation [2]	self-aminoacylation [3]	self-aminoacylation [4]	self-aminoacylation [5]	self-aminoacylation [6]
CCACACUGUAAGCAAUCGGUC [Fam1B.1 aminoacylation ribozyme variant]	0.898	1.06	0.953	1.14	1.09	1.16
CUAGUGCAAACAAUCGGUCUG [Fam1A.1 aminoacylation ribozyme variant]	2.39	0.998	0.962	1	1.03	0.9
CUACUUCAAACAAUCGAUCAG [Fam1A.1 aminoacylation ribozyme variant]	1.15	0.554	0.497	0.654	0.659	0.617
CCACUCUUCAAACAAUCGGUC [Fam1B.1 aminoacylation ribozyme variant]	78.3	1.23	1.44	1.3	2.04	41.8
CUUCUUCAAACAAUCUGUCUG [Fam1A.1 aminoacylation ribozyme variant]	2.27	0.768	0.587	0.698	0.748	1.15
AUUACCCUGGUCAUCAUGUGA [Fam2.1 aminoacylation ribozyme variant]	26.2	2.67	6.44	3.17	6.36	6.97
CUACUUCAAACCAUCGGUCAG [Fam1A.1 aminoacylation ribozyme variant]	0.853	0.67	0.609	0.771	0.488	0.762
CUACUUCAAUCAAUCUGUCUG [Fam1A.1 aminoacylation ribozyme variant]	1.25	0.599	0.539	0.597	0.57	0.721
AUUAUCCUGGACAUCGAGUGA [Fam2.1 aminoacylation ribozyme variant]	34.7	2.88	6.78	3.06	6.24	8.19
AAGUUUGUUAAUAGUCGUAAG [Fam3.1 aminoacylation ribozyme variant]	1.38	0.929	0.893	0.808	0.902	0.911
CUACUUCAAACAAACGGUUUG [Fam1A.1 aminoacylation ribozyme variant]	0.656	0.803	0.719	0.796	0.67	0.396
AAGAUUGCCAAUAGUCGCAAG [Fam3.1 aminoacylation ribozyme variant]	1.69	1.51	1.8	1.81	1.63	1.88
AAGCUUGCUAAUAGUCGCAAG [Fam3.1 aminoacylation ribozyme variant]	3.96	1.85	1.69	1.59	1.67	2.02
AUUAUCCUGGUGAUCGAGUGA [Fam2.1 aminoacylation ribozyme variant]	45.5	3.55	7.34	3.46	7.98	9.06
CUAAUUCAAACCAUCGGUCUG [Fam1A.1 aminoacylation ribozyme variant]	0.795	0.967	0.817	0.848	0.949	0.589
CUGCUUCAAAAAAUCGGUCUG [Fam1A.1 aminoacylation ribozyme variant]	17.9	1.35	1.25	0.976	1.59	14.2
CCACACUUCAGGCAAUCGGGC [Fam1B.1 aminoacylation ribozyme variant]	11	2.46	1.37	3.35	2.45	2.21
AUUUACCUAGGUCAUCGGGUG [Fam2.2 aminoacylation ribozyme variant]	235	18.3	33.2	15.4	45	26.1
UCACACUUCAAGCUAUCGGUC [Fam1B.1 aminoacylation ribozyme variant]	1.11	0.939	0.703	1.02	0.749	0.724
AUUCGCCUAGGUCAGCGGGUG [Fam2.2 aminoacylation ribozyme variant]	37.8	3.91	5.21	3.96	5.95	5.11
GUUACCCUGGUCAUCGAGAGA [Fam2.1 aminoacylation ribozyme variant]	2.82	1.32	2.96	1.74	1.9	3.07
CUACUUCAACCAAUCGGUCCG [Fam1A.1 aminoacylation ribozyme variant]	6.1	0.867	1.26	0.799	1.22	5.57
AUUCACCUAGGUCCUUGGGUG [Fam2.2 aminoacylation ribozyme variant]	31.7	2.7	4.11	2.51	5.09	3.42
AAGUUUGCUGAUAGUCCCAAG [Fam3.1 aminoacylation ribozyme variant]	0.972	1.17	0.626	0.847	0.786	1.08
AGUACCCUGGUCAUAGAGUGA [Fam2.1 aminoacylation ribozyme variant]	15.4	2.33	4.15	2.48	4.1	4.67
CCACACAUCAAGAAAUCGGUC [Fam1B.1 aminoacylation ribozyme variant]	1.2	0.732	0.61	0.776	0.792	0.645
